Assay results: paper doi:10.1101/2025.07.27.667015v3 (biorxiv, 2025)

What was measured:
CSCC[C@H](N)C(=O)O = assay: purified protein; settings: saturating PLP (5 μM), 50 mM Tris-HCl pH 8.0, 20 °C
yMGL [1] = target: yMGL (Yarrowia lipolytica, UniProt Q6CB42); assay: OpenSPR, protein immobilised on NTA chip; format: binding
yMGL [2] = target: yMGL (Yarrowia lipolytica, UniProt Q6CB42, S333A); assay: OpenSPR, protein immobilised on NTA chip; format: binding

Row | Compound | Km (CSCC[C@H](N)C(=O)O) [µM] | kcat (CSCC[C@H](N)C(=O)O) [s⁻¹] | Kd (yMGL [1]) [µM] | Kd (yMGL [2]) [µM]
1 | yMGL-ΔCTD (Yarrowia lipolytica CLIB122; DEL253-380) | 750 ± 10 | 0.04 ± 0.00 | – | –
2 | yMGL (Yarrowia lipolytica CLIB122) | 1500 ± 10 | 0.06 ± 0.00 | – | –
3 | Cc1ncc(COP(=O)(O)O)c(C=O)c1O [PLP] | – | – | 33.1 | 942
